Measured values reported in patent US20190359710A1.
Values belong to the binder of their own block, whether it stands above or below them.

Experiments:
[1] = biological target: CD33 and CD123 together on double-positive human AML cells; assay: calibrated flow cytometry on MOLM13 cells (CD33/CD123 double-positive)
[2] = biological target: CD33 and CD123 together on double-positive human AML cells; assay: cell-based or functional assay

Kd [1]: 11 nM
B1: candidate triplebody hu[33-ds16-ds123RK] before polishing of the sequence (protein, not shown: small tags and cut ends)
chain: EVQLVESGGGLIQPGGSLRLSCAASGFPLTSYGVSWVRQPPGKGLEWLGVIWGDGSTNYHSALISRFTISRDNSKNTLYLQMNSLRAEDTAVYYCARDTYYPYYAMDYWGQGTTVTVSSGGGGSGGGGSGGGGSDIQMTQSPSSLSASVGDRVTITCKASQDVSTAVAWYQQKPGKAPKLLIYSASYRYTGVPSRFSGSGSGTDFTLTISSLQPEDFATYYCQQHYSTPLTFGQGTKLEIKRGGGGSGGGGSGGGGSGGGGSDIVLTQSPSSLSASVGDRVTITCKASQSVDFDGDSFMNWYQQKPGKAPKLLIYTTSNLESGVPSRFSASGSGTDFTLTISSLQPEDFATYYCQQSNEDPYTFGCGTKVEIKRGGGGSGGGGSGGGGSGGGGSEVQLVESGGGDVQPGGSLRLSCAFSGFSLRTSGMGVGWIRQAPGKCLEWVAHIWWDDDKRYNPSVKGRFTISKDTSSNTVYLQMNSLRAEDTAVYYCAQINPAWFAYWGQGTLVTVSSGGGGSGGGGSGGGGSGGGGSEVQLVESGGGLVQPGGSLRLSCAASGFTFTDYYMSWVRQAPGKCLEWLALIRSKADGYTTEYSASVKGRFTISRDDSKNSLYLQMNSLKTEDTAVYYCARDAAYYSYYSPEGAMDYWGQGTSVTVSSGGGGSGGGGSGGGGSDIQMTQSPSSLSASVGDRVTITCKASQNVDSAVAWYQQKPGKAPKALIYSASYRYSGVPSRFSGSGSGTDFTLTISSLQPEDFATYYCQQYYSTPWTFGCGTKVEIKR

% specific lysis of MOLM-13 cells at 1 nM SPM-2, 4 hr time point [2]: 30.7%
Biol. Activity EC50 [pM], redirected lysis (RDL), 3 h, E:T=10:1 (MNC:MOLM-13) [2]: 14 pM
EC50 (pM), RDL cytolysis of primary MNCs of AML patient P1 with LAK cells [2]: 131 pM
EC50 (pM), RDL cytolysis of primary MNCs of AML patient P2 with LAK cells [2]: 20 pM
EC50 (pM), RDL cytolysis of primary MNCs of AML patient P3 with LAK cells [2]: 67 pM
EC50 (pM), RDL cytolysis of primary MNCs of AML patient P4 with LAK cells [2]: 32 pM
EC50 (pM), RDL cytolysis of primary MNCs of AML patient P5 with LAK cells [2]: 242 pM
EC50 (pM), RDL cytolysis of primary MNCs of AML patient P6 with LAK cells [2]: 155 pM
EC50 (pM), RDL cytolysis of primary MNCs of AML patient P7 with LAK cells [2]: 79 pM
EC50 (pM), RDL cytolysis of primary MNCs of AML patient P8 with LAK cells [2]: 133 pM
EC50 (pM), RDL cytolysis of primary MNCs of AML patient P9 with LAK cells [2]: 166 pM
EC50 (pM), RDL cytolysis of primary MNCs of AML patient P10 with LAK cells [2]: 51 pM
EC50 (pM), RDL cytolysis of primary MNCs of AML patient P11 with LAK cells [2]: 1080 pM
EC50 (pM), RDL cytolysis of primary MNCs of AML patient P12 with LAK cells [2]: 38 pM
EC50 (pM), RDL cytolysis of primary MNCs of AML patient P13 with LAK cells [2]: 245 pM
EC50 (pM), RDL cytolysis of primary MNCs of AML patient P14 with LAK cells [2]: 229 pM
EC50 (pM), RDL cytolysis of primary MNCs of AML patient P15 with LAK cells [2]: 177 pM
EC50 (pM), RDL cytolysis of primary MNCs of AML patient P16 with LAK cells [2]: 758 pM
EC50 (pM), RDL cytolysis of primary MNCs of AML patient P17 with LAK cells [2]: 125 pM
EC50 (pM), RDL cytolysis of primary MNCs of AML patient P18 with LAK cells [2]: 221 pM
EC50 (pM), RDL cytolysis of primary MNCs of AML patient P19 with LAK cells [2]: 406 pM
EC50 (pM), RDL cytolysis of primary MNCs of AML patient P20 with LAK cells [2]: 251 pM
EC50 (pM), RDL cytolysis of primary MNCs of AML patient P21 with LAK cells [2]: 22 pM
EC50 (pM), RDL cytolysis of primary MNCs of AML patient P22 with LAK cells [2]: 225 pM
EC50 (pM), RDL cytolysis of primary MNCs of AML patient P23 with LAK cells [2]: 476 pM
EC50 (pM), RDL cytolysis of primary MNCs of AML patient P24 with LAK cells [2]: 127 pM
EC50 (pM), RDL cytolysis of primary MNCs of AML patient P25 with LAK cells [2]: 541 pM
EC50 (pM), RDL cytolysis of primary MNCs of AML patient P26 with LAK cells [2]: 58 pM
EC50 (pM), RDL cytolysis of primary MNCs of AML patient P27 with LAK cells [2]: 10 pM
EC50 (pM), RDL cytolysis of primary MNCs of AML patient P28 with LAK cells [2]: 560 pM
EC50 (pM), RDL cytolysis of primary MNCs of AML patient P29 with LAK cells [2]: 70 pM
EC50 (pM), RDL lysis of CD34-enriched MNCs of AML patient P9 [2]: 43 pM
EC50 (pM), RDL lysis of CD34-enriched MNCs of AML patient P11 [2]: 681 pM
EC50, standard RDL assay, MOLM-13 targets, thawed LAK cells, 4 hr, MNC:Target 10:1 [2]: 0.024 nM
B2: single chain triplebody SPM-2, hu(33-ds16-ds123RK) (protein)
chain: EVQLVESGGGLIQPGGSLRLSCAASGFPLTSYGVSWVRQPPGKGLEWLGVIWGDGSTNYHSALISRFTISRDNSKNTLYLQMNSLRAEDTAVYYCARDTYYPYYAMDYWGQGTTVTVSSGGGGSGGGGSGGGGSDIQMTQSPSSLSASVGDRVTITCKASQDVSTAVAWYQQKPGKAPKLLIYSASYRYTGVPSRFSGSGSGTDFTLTISSLQPEDFATYYCQQHYSTPLTFGQGTKLEIKRGGGGSGGGGSGGGGSGGGGSDIVLTQSPSSLSASVGDRVTITCKASQSVDFDGDSFMNWYQQKPGKAPKLLIYTTSNLESGVPSRFSASGSGTDFTLTISSLQPEDFATYYCQQSNEDPYTFGCGTKVEIKRGGGGSGGGGSGGGGSGGGGSEVQLVESGGGDVQPGGSLRLSCAFSGFSLRTSGMGVGWIRQAPGKCLEWVAHIWWDDDKRYNPSVKGRFTISKDTSSNTVYLQMNSLRAEDTAVYYCAQINPAWFAYWGQGTLVTVSSGGGGSGGGGSGGGGSGGGGSEVQLVESGGGLVQPGGSLRLSCAASGFTFTDYYMSWVRQAPGKCLEWLALIRSKADGYTTEYSASVKGRFTISRDDSKNSLYLQMNSLKTEDTAVYYCARDAAYYSYYSPEGAMDYWGQGTSVTVSSGGGGSGGGGSGGGGSDIQMTQSPSSLSASVGDRVTITCKASQNVDSAVAWYQQKPGKAPKALIYSASYRYSGVPSRFSGSGSGTDFTLTISSLQPEDFATYYCQQYYSTPWTFGCGTKVEIKRGGGGSHHHHHH
